Experimental data taken from PMC5469197, “ANGUSTIFOLIA, a Plant Homolog of CtBP/BARS Localizes to Stress Granules and Regulates Their Formation” (Frontiers in Plant Science, 2017).

Assays:
Assay in all cases: co-IP; LUMIER in HEK293TN cells: Prot-A fusion co-transfected with Renilla luciferase fusion (AN always the luciferase fusion with the interactors); luciferase activity before (input) and after pulldown; percentage pulldown = pulldown/input x 100; empty vectors as negative control; positive if more than two times the background
Details in all cases: partners not purified
[1] = biological target: T1, …ONALLY CONTROLLED TUMOR PROTEIN (TCTP), Prot-A fusion (Arabidopsis thaliana, UniProt P31265 1-168)
T1 construct: Translationally controlled tumor protein, Arabidopsis thaliana, AT3G16640; CDS amplified from Col-0 cDNA; source: HEK293TN cells, transfected; not shown: Protein A (Staphylococcus aureus), N-terminal, kept
T1 sequence (looked up): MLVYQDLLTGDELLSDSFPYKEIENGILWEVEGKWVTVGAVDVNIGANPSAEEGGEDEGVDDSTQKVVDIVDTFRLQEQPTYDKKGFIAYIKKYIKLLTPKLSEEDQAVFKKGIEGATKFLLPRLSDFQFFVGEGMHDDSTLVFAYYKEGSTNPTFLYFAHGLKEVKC

[2] = biological target: T2, TANDEM CCCH ZINC FINGER (TZF) ATC3H14, Prot-A fusion (Arabidopsis thaliana, UniProt Q9C9N3 1-310)
T2 construct: Tandem CCCH zinc finger protein ATC3H14, Arabidopsis thaliana, AT1G66810; CDS amplified from Col-0 cDNA; source: HEK293TN cells, transfected; not shown: Protein A (Staphylococcus aureus), N-terminal, kept
T2 sequence (looked up): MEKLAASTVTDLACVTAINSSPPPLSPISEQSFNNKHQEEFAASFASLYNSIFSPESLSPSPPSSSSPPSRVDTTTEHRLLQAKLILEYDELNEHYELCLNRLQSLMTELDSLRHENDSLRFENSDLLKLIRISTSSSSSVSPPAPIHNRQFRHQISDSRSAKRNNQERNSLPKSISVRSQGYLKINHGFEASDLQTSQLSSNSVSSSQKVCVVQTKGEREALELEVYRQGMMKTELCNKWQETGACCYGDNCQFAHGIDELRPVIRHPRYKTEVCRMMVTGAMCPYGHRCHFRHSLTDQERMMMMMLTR

[3] = biological target: T3, GLYCINE-RICH RNA-BINDING PROTEIN 2 (GRP2), Prot-A fusion (Arabidopsis thaliana, UniProt Q9SVM8 35-158)
T3 construct: CDS amplified from Col-0 cDNA; source: HEK293TN cells, transfected; not shown: Protein A (Staphylococcus aureus), N-terminal, kept
T3 sequence (looked up): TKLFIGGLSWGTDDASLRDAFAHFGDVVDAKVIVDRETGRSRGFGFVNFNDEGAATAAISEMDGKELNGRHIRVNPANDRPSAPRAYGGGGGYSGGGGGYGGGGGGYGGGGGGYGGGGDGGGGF

[4] = biological target: T4, KH DOMAIN-CONTAINING PROTEIN (AT2G38610), Prot-A fusion (Arabidopsis thaliana, UniProt Q9ZVI3 1-286)
T4 construct: KH domain-containing protein, Arabidopsis thaliana, AT2G38610; CDS amplified from Col-0 cDNA; source: HEK293TN cells, transfected; not shown: Protein A (Staphylococcus aureus), N-terminal, kept
T4 sequence (looked up): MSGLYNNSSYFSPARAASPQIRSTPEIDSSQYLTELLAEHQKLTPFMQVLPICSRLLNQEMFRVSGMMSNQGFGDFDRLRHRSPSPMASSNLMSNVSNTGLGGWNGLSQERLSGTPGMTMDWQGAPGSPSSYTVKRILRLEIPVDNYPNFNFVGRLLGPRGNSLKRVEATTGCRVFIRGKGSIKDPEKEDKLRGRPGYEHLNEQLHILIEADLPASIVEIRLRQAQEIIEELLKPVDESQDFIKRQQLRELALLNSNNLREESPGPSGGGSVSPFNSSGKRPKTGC

[5] = biological target: T5, EUKARYOTIC INITIATION FACTOR 4E1 (EIF4E1), Prot-A fusion (Arabidopsis thaliana, UniProt O23252 1-235)
T5 construct: Eukaryotic initiation factor 4E1, Arabidopsis thaliana, AT4G18040; CDS amplified from Col-0 cDNA; source: HEK293TN cells, transfected; not shown: Protein A (Staphylococcus aureus), N-terminal, kept
T5 sequence (looked up): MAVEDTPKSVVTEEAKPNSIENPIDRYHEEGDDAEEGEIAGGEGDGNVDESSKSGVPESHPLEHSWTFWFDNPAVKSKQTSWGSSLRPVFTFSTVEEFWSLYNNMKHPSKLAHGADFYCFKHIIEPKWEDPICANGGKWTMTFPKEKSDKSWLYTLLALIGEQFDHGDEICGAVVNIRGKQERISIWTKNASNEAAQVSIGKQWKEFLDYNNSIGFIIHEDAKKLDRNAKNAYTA

- fold change from background [1]: 3.12 fold
- percentage pulldown [1]: 0.28%
- fold change from background [2]: 4.92 fold
- percentage pulldown [2]: 0.47%
- fold change from background [3]: 2.52 fold
- percentage pulldown [3]: 0.24%
- fold change from background [4]: 2.93 fold
- percentage pulldown [4]: 0.28%
- fold change from background [5]: 2.83 fold
- percentage pulldown [5]: 0.27%
B1: AN, Renilla luciferase fusion (LUMIER) (natural protein, Arabidopsis thaliana, UniProt O23702 1-636, looked up)
chain: MSKIRSSATMPHRDQPSPASPHVVTLNCIEDCALEQDSLAGVAGVEYVPLSRIADGKIESATAVLLHSLAYLPRAAQRRLRPHQLILCLGSADRAVDSTLAADLGLRLVHVDTSRAEEIADTVMALILGLLRRTHLLSRHALSASGWLGSLQPLCRGMRRCRGMVLGIVGRSVSARYLASRSLAFKMSVLYFDVPEGDEERIRPSRFPRAARRMDTLNDLLAASDVISLHCALTNDTVQILNAECLQHIKPGAFLVNTGSCQLLDDCAVKQLLIDGTIAGCALDGAEGPQWMEAWVKEMPNVLILPRSADYSEEVWMEIREKAISILHSFFLDGVIPSNTVSDEEVEESEASEEEEQSPSKHEKLAIVESTSRQQGESTLTSTEIVRREASELKESLSPGQQHVSQNTAVKPEGRRSRSGKKAKKRHSQQKYMQKTDGSSGLNEESTSRRDDIAMSDTEEVLSSSSRCASPEDSRSRKTPLEVMQESSPNQLVMSSKKFIGKSSELLKDGYVVALYAKDLSGLHVSRQRTKNGGWFLDTLSNVSKRDPAAQFIIAYRNKDTVGLRSFAAGGKLLQINRRMEFVFASHSFDVWESWSLEGSLDECRLVNCRNSSAVLDVRVEILAMVGDDGITRWID
notes: ANGUSTIFOLIA (AN), Arabidopsis thaliana, AT1G01510; CDS amplified from Col-0 cDNA; in the dimerisation test the second copy must have been the N-terminal protein A fusion (surmised from the LUMIER format); also called wild-type AN; source: HEK293TN cells, transfected; not shown: Renilla reniformis luciferase, N-terminal, kept
